{
  "source": "ChEMBL document CHEMBL4706636",
  "about": "“Determining Essential Requirements for Fluorophore Selection in Various Fluorescence Applications Taking Advantage of Diverse Structure-Fluorescence Information of Chromone Derivatives” (J Med Chem, 2021)",
  "key": {"[1]": {"system": "CCCc1coc2cc(NC(=O)C(N)CCCCN)c(OC)cc2c1=O", "test": "(§1) Substrate activity at trypsin (unknown origin) by fluorescent biochemical assay", "format": "protein assay", "conditions": "Homo sapiens"}, "[2]": {"system": "CCCc1coc2cc(NC(=O)C(N)CCCCN)ccc2c1=O", "test": "as §1", "format": "protein assay", "conditions": "Homo sapiens"}},
  "data": [
    {"substance": "Trypsin (Homo sapiens) (from UniProt P07477+P07478+P35030)", "values": [
      {"measurement": "Km", "setting": "[1]", "value": 30.3, "unit": "µM"},
      {"measurement": "Km", "setting": "[2]", "value": 47.6, "unit": "µM"}
    ]}
  ]
}
